Laboratory results: patent publication US20100036106, “High-Affinity RNA Aptamer Molecule Against Glutathione-S-Transferase Protein” (NEC Soft, Ltd., published 2010)

B1: No. 3 clone RNA aptamer with 5' poly(A) (ssRNA)
RNA: GGUAGAUACGAUGGAUGGUUGUGUAAAGGUGGUCGUAUCCGCCGACAUGACGCGCAGCCAA
B2: No. 5 clone RNA aptamer with 5' poly(A) (ssRNA)
RNA: GGUAGAUACGAUGGACUAACUGCGCAAAUUACUCGUAUUAGCCGACAUGACGCGCAGCCAA
B3: No. 26 clone RNA aptamer with 5' poly(A) (ssRNA)
RNA: GGUAGAUACGAUGGAUACCGAAAAAUUAGUGUCGUUGACUGCAACAUGACGCGCAGCCAA

Biological target: Glutathione S-transferase (GST) (Schistosoma japonicum, UniProt P08515 P08515:2-218)
Test: SPR; Kd fitted with BIA Evolution 3.1 but value only in figure; RNA immobilized via poly(A)/poly(dT)
Settings: chain copies: 2 inferred
From the text: Synthetic biotinylated polydT (Hokkaido System Science) is allowed to bind to the surface of an SA BIACORE chip (Biacore). The single-stranded RNA molecules (RNA adaptor molecules) comprising polyA (Aₙ) added on the 5′-terminal side are annealed with the synthetic biotinylated polydT immobilized on the chip surface. As a result, the single-stranded RNA molecules (RNA adaptor molecules) are immobilized thereon via the hybrid bonding between the polydT and the polyA (Aₙ).
This chip on which the single-stranded RNA molecules (RNA adaptor molecules) are immobilized is utilized to measure the process of formation of complexes of the single-stranded RNA molecules (RNA adaptor molecules) and GST proteins and the process of dissociation thereof by use of a surface plasmon resonance detection apparatus. The results are analyzed to determine the equilibrium dissociation constants of the complexes.
Parameter fitting is conducted by use of BIA Evolution ver. 3.1 for the concentrations of the GST protein in the poured GST protein solutions and the time-dependent changes in signal intensity measured in this process, to thereby determine equilibrium dissociation constant KD.

Sequence of Glutathione S-transferase (GST) (P08515 2-218, one chain of several): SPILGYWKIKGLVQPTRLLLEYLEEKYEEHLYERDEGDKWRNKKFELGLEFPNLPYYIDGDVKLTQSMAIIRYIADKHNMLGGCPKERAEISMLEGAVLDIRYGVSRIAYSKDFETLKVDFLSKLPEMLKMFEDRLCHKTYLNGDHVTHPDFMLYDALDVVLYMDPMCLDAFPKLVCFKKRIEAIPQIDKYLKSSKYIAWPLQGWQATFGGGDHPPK

Binder	binding result
B1	binds
B2	binds
B3	binds
